# Molecular target: t-SNARE complex (syntaxin HT and SNAP-25) (rat) (UniProt P32851)
# Test: EPR spectroscopy
substance,measurement,value
"complexin I C105A R56C, spin-labeled at position 56 (from UniProt P63041 2-134) (natural protein)",Kd,50 µM

# Source: paper PMC2493294
